This is an account of results in IntAct's records for PubMed 24217340.

First the molecules themselves.
B1: Zinc finger protein GLI2 (Mus musculus), Q0VGT2 (parent)
chain: METSAPAPALEKKEAKSGLLEDSSFPDPGKKACPLAVAAAVAAHGVPQQLLPAFHAPLPIDMRHQEGRYHYDPHSVHSVHGPPTLSGSPVISDISLIRLSPHPAGPGESPFSAHHPYVNPHMEHYLRSVHSSPTLSMISAARGLSPADVAHEHLKERGLFSLAAPGTNPSDYYHQMTLMASHPTPYGDLLMQSGGAASAPHLHDYLNPVDASRFSSPRVTPRLSRKRALSISPLSDASLDLQRMIRTSPNSLVAYINNSRSSSAASGSYGHLSAGALSPAFTFPHPINPVAYQQILSQQRGLGSAFGHTPPLIQPSPTFLAQQPMTLTSISTMPTQLSSSSSNCLNDANQNKQNSESAVSSTVNPITIHKRSKVKTEAEGLRPASPLGLTQEQLADLKEDLDRDDCKQEAEVVIYETNCHWADCTKEYDTQEQLVHHINNEHIHGEKKEFVCRWQACTREQKPFKAQYMLVVHMRRHTGEKPHKCTFEGCSKAYSRLENLKTHLRSHTGEKPYVCEHEGCNKAFSNASDRAKHQNRTHSNEKPYICKIPGCTKRYTDPSSLRKHVKTVHGPDAHVTKKQRNDVHVRAPLLKENGDNEASAEPGGRGPEESVEASSTSHTVEDCLHIKAIKTESSGLCQSSPGAQSSCSSEPSPLGSAPNNDSGMEMPGTGPGSLGDLTALADTCPGADTSALAAPSTGGLQLRKHMSTVHRFEQLKREKLKSLKDSCSWAGPAPHTRNTKLPPLPVNGSVLENFNNTGGGGPAGLLPSQRLPELTEVTMLSQLQERRDSSTSTMSSAYTVSRRSSGISPYFSSRRSSEASPLGGLRPHNASSADSYDPISTDASRRSSEASQCSGGGPGLLNLTPAQQYNLRAKYAAATGGPPPTPLPGLDRVSLRTRLALLDAPERALPGACPHPLGPRRGSDGPTYSHGHGHGYAGAAPAFPHEGPNSSTRRASDPVRRPDPLILPRVQRFHSTHNMNPGSLPPCADRRGLHVQSHPSVDSNLTRNAYSPRPPSINENVVMEAVAAGVDGPGLECDLGLVEDELVLPDDVVQYIKAHTGGTLDDGIRQGYPTEGTGFPENSKLPSPGLQGHRRLAAADSNMGPSAPGLGGCQLSYSPSSNLNKSNMPVQWNEVSSGTVDALPTQVKPPPFPHSNLAVVQQKPAFGQYPGYNPQSVQSSSGGLDSTQPHLQLRGAPSASRGSYTQQPRQPAAGSQCLGMSAAMSPQASYSQAHPQLSPNIVSGSLNQFSPSCSNMAAKPSHLGLPQQMEVVPNATIMNGHQREHGVPNSSLAAVSQPHPVLSYPQQDSYQQGSNLLSSHQPGFMESQQNAGFGLMQPRPPLEPNTASRHRGVRSGQQQLYARTTGQAMVTSANQETAEAMPKGPAGTMVSLAPQPSQDTGRAQDQNTLYYYGQIHMYEQNGGCPAVQPQPPQPQACSDSIQPEPLPSPGVNQVSSTVDSQLLEPPQIDFDAIMDDGDHSSLFSGALSPTLLHNLSQNSSRLTTPRNSLTLPSIPAGISNMAVGDMSSMLTSLAEESKFLNMMT
partner: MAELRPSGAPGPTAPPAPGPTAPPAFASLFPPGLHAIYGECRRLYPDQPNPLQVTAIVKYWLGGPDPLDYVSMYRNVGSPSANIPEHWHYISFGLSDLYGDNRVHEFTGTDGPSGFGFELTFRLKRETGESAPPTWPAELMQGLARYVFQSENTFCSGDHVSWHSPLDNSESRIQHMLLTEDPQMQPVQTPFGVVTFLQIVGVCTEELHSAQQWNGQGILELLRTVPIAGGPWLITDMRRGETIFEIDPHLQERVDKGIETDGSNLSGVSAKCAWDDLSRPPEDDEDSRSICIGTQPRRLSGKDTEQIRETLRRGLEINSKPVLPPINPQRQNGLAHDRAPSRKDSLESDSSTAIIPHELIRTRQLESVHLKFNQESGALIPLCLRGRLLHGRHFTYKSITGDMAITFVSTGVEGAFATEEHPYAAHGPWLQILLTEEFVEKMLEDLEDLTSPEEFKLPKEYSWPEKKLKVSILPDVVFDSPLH
B2: Suppressor of fused homolog (Homo sapiens), Q9UMX1 (parent)
chain: B1 partner

The variants in the first assay derive from B1. Particulars: with sufu_human SUFU, Q9UMX1.
On to G270A;H271A;L272D, for which the “effect of a mutation on the interaction” value was “disrupting interaction”.

Take G270V;H271E;L272D: the “effect of a mutation on the interaction” value was “disrupting interaction”.

The next assay covers variants of B2. Particulars: with gli1_human GLI1, P08151.
Take MAELRPSGAPGPTAPPAPGPTAPPAFASLFPPGLHAIYGECRRLYPDQPNPLQVTAIVKYWLGGPDPLDYVSMYRNVGSPSANIPEHWHYISFGLSDLYGDNRVHEFTGTDGPSGFGFELTFRLKRETGESAPPTWPAELMQGLARRVFQSENTACSGRHVSWHSPLDNSESRIQHMLLTEDPQMQPVQTPFGVVTFLQIVGVCTEELHSAQQWNGQGILELLRTVPIAGGPWLITDMRRGETIFEIDPHLQERVDKGIETDGSNLSGVSAKCAWDDLSRPPEDDEDSRSICIGTQPRRLSGKDTEQIRETLRRGLEINSKPVLPPINPQRQNGLAHDRAPSRKDSLESDSSTAIIPHELIRTRQLESVHLKFNQESGALIPLCLRGRLLHGRHFTYKSITGDMAITFVSTGVEGAFATEEHPYAAHGPWLQILLTEEFVEKMLEDLEDLTSPEEFKLPKEYSWPEKKLKVSILPDVVFDSPLH [Y147R;F155A;D159R]: the “effect of a mutation on the interaction” value is on record as “disrupting interaction”.

Consider MAELRPSGAPGPTAPPAPGPTAPPAFASLFPPGLHAIYGECRRLYPDQPNPLQVTAIVKYWLGGPDPLDYVSMYRNVGSPSANIPEHWHYISFGLSDLYGDNRVHEFTGTDGPSGFGFELTFRLKRETGESAPPTWPAELMQGLARRVFQSENTACSGDHVSWHSPLDNSESRIQHMLLTEDPQMQPVQTPFGVVTFLQIVGVCTEELHSAQQWNGQGILELLRTVPIAGGPWLITDMRRGETIFEIDPHLQERVDKGIETDGSNLSGVSAKCAWDDLSRPPEDDEDSRSICIGTQPRRLSGKDTEQIRETLRRGLEINSKPVLPPINPQRQNGLAHDRAPSRKDSLESDSSTAIIPHELIRTRQLESVHLKFNQESGALIPLCLRGRLLHGRHFTYKSITGDMAITFVSTGVEGAFATEEHPYAAHGPWLQILLTEEFVEKMLEDLEDLTSPEEFKLPKEYSWPEKKLKVSILPDVVFDSPLH [Y147R;F155A], for which the “effect of a mutation on the interaction” value is “disrupting interaction”.

Variants of B2 are the subject of another assay. The following applies: with gli1_human GLI1, P08151. This is another data set of the same source.
Turning to MAELRPSGAPGPTAPPAPGPTAPPAFASLFPPGLHAIYGECRRLYPDQPNPLQVTAIVKYWLGGPDPLDYVSMYRNVGSPSANIPEHWHYISFGLSDLYGDNRVHEFTGTDGPSGFGFELTFRLKRETGESAPPTWPAELMQGLARRVFQSENTACSGAHVSWHSPLDNSESRIQHMLLTEDPQMQPVQTPFGVVTFLQIVGVCTEELHSAQQWNGQGILELLRTVPIAGGPWLITDMRRGETIFEIDPHLQERVDKGIETDGSNLSGVSAKCAWDDLSRPPEDDEDSRSICIGTQPRRLSGKDTEQIRETLRRGLEINSKPVLPPINPQRQNGLAHDRAPSRKDSLESDSSTAIIPHELIRTRQLESVHLKFNQESGARIPLCLRGRLLHGRHFTYKSITGDMAITFVSTGVEGAFATEEHPYAAHGPWLQILLTEEFVEKMLEDLEDLTSPEEFKLPKEYSWPEKKLKVSILPDVVFDSPLH [Y147R;F155A;D159A;L380R], the “effect of a mutation on the interaction” value is given as “disrupting interaction”.

For the variant MAELRPSGAPGPTAPPAPGPTAPPAFASLFPPGLHAIYGECRRLYPDQPNPLQVTAIVKYWLGGPDPLDYVSMYRNVGSPSANIPEHWHYISFGLSDLYGDNRVHEFTGTDGPSGFGFELTFRLKRETGESAPPTWPAELMQGLARRVFQSENTACSGRHVSWHSPLDNSESRIQHMLLTEDPQMQPVQTPFGVVTFLQIVGVCTEELHSAQQWNGQGILELLRTVPIAGGPWLITDMRRGETIFEIDPHLQERVDKGIETDGSNLSGVSAKCAWDDLSRPPEDDEDSRSICIGTQPRRLSGKDTEQIRETLRRGLEINSKPVLPPINPQRQNGLAHDRAPSRKDSLESDSSTAIIPHELIRTRQLESVHLKFNQESGARIPLCLRGRLLHGRHFTYKSITGDMAITFVSTGVEGAFATEEHPYAAHGPWLQILLTEEFVEKMLEDLEDLTSPEEFKLPKEYSWPEKKLKVSILPDVVFDSPLH [Y147R;F155A;D159R;L380R], the “effect of a mutation on the interaction” value is given as “disrupting interaction”.

As for MAELRPSGAPGPTAPPAPGPTAPPAFASLFPPGLHAIYGECRRLYPDQPNPLQVTAIVKYWLGGPDPLDYVSMYRNVGSPSANIPEHWHYISFGLSDLYGDNRVHEFTGTDGPSGFGFELTFRLKRETGESAPPTWPAELMQGLARRVFQSENTACSGDHVSWHSPLDNSESRIQHMLLTEDPQMQPVQTPFGVVTFLQIVGVCTEELHSAQQWNGQGILELLRTVPIAGGPWLITDMRRGETIFEIDPHLQERVDKGIETDGSNLSGVSAKCAWDDLSRPPEDDEDSRSICIGTQPRRLSGKDTEQIRETLRRGLEINSKPVLPPINPQRQNGLAHDRAPSRKDSLESDSSTAIIPHELIRTRQLESVHLKFNQESGALIPLCLRGRLLHGRHFTYKSITGDMAITFVSTGVEGAFATEEHPYAAHGPWLQILLTEEFVEKMLEDLEDLTSPEEFKLPKEYSWPEKKLKVSILPDVVFDSPLH [Y147R;F155A], the “effect of a mutation on the interaction” value is reported as “decreasing interaction”.

Variants of B2 are the subject of a further assay. Particulars: with gli2_mouse Gli2, Q0VGT2.
For MAELRPSGAPGPTAPPAPGPTAPPAFASLFPPGLHAIYGECRRLYPDQPNPLQVTAIVKYWLGGPDPLDYVSMYRNVGSPSANIPEHWHYISFGLSDLYGDNRVHEFTGTDGPSGFGFELTFRLKRETGESAPPTWPAELMQGLARYVFQSENTFCSGDHVSWHSPLDNSESRIQHMLLTEDPQMQPVQTPFGVVTFLQIVGVCTEELHSAQQWNGQGILELLRTVPIAGGPWLITDMRRGETIFEIDPHLQERVDKGIETDGSNLSGVSAKCAWDDLSRPPEDDEDSRSICIGTQPRRLSGKDTEQIRETLRRGLEINSKPVLPPINPQRQNGLAHDRAPSRKDSLESDSSTAIIPHELIRTRQLESVHLKFNQESGARIPLCLRGRLLHGRHFTYKSITGDMAITFVSTGVEGAFATEEHPYAAHGPWLQILLTEEFVEKMLEDLEDLTSPEEFKLPKEYSWPEKKLKVSILPDVVFDSPLH [L380R], the “effect of a mutation on the interaction” value is on record as “decreasing interaction”.

In a further assay the parent is B2. Particulars: with gli2_mouse Gli2, Q0VGT2. The source holds these as a separate data set.
Turning to MAELRPSGAPGPTAPPAPGPTAPPAFASLFPPGLHAIYGECRRLYPDQPNPLQVTAIVKYWLGGPDPLDYVSMYRNVGSPSANIPEHWHYISFGLSDLYGDNRVHEFTGTDGPSGFGFELTFRLKRETGESAPPTWPAELMQGLARYVFQSENTFCSGDHVSWHSPLDNSESRIQHMLLTEDPQMQPVQTPFGVVTFLQIVGVCTEELHSAQQWNGQGILELLRTVPIAGGPWLITDMRRGETIFEIDPHLQERVDKGIETDGSNLSGVSAKCAWDDLSRPPEDDEDSRSICIGTQPRRLSGKDTEQIRETLRRGLEINSKPVLPPINPQRQNGLAHDRAPSRKDSLESDSSTAIIPHELIRTRQLESVHLKFNQESGARIPLCLRGRLLHGRHFTYKSITGDMAITFVSTGVEGAFATEEHPYAAHGPWLQILLTEEFVEKMLEDLEDLTSPEEFKLPKEYSWPEKKLKVSILPDVVFDSPLH [L380R], the “effect of a mutation on the interaction” value is given as “disrupting interaction”.
